{"source": "paper PMC3607624", "about": "(Journal of molecular biology, 2011)", "key": {"[1]": {"target": "microtubules (tubulin heterodimer) (UniProt P02550 1-451)", "sequence (P02550 whole entry, chain 1 of 2)": "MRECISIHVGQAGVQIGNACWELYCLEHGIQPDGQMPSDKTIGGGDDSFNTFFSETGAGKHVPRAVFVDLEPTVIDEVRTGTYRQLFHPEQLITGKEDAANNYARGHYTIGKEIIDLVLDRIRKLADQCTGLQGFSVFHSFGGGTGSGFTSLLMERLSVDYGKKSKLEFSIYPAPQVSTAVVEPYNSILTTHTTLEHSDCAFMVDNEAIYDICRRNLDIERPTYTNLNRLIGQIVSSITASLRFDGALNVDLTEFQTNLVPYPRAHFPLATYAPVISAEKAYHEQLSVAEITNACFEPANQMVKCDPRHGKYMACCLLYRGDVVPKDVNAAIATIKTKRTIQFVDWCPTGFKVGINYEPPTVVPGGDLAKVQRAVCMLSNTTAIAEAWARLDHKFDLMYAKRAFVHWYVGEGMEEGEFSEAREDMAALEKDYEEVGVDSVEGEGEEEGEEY", "sequence (P02554 whole entry, chain 2 of 2, further chain)": "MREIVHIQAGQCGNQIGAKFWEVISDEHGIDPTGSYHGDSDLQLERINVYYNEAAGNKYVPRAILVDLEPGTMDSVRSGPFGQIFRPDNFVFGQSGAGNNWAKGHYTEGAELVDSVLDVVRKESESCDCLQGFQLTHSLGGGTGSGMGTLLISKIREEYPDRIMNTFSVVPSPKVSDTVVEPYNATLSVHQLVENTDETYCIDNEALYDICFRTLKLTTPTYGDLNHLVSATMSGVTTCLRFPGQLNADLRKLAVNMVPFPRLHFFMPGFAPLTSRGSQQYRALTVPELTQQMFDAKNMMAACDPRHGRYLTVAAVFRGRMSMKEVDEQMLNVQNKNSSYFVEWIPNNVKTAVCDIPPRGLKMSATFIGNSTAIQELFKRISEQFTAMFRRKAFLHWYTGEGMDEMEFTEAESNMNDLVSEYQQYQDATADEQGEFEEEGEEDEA", "test": "co-sedimentation"}, "F-actin": {"target": "F-actin (UniProt P68135 1-377)", "test": "co-sedimentation"}}}
{"binder": "Dictyostelium myosin 7 N-terminal MyTH4/FERM domain (MF1) (domain or fragment, Dictyostelium discoideum, UniProt Q9U1M8 1085-1620, looked up) SATATGNNTPNSSSASASQSTNQVNPQPTVSVVELPQILNDEEISLYSFYDYANKNFNIEKLKQKDDIFSYQKSHIKSSLLVHSDAEQTKVAVEIFSKVLHYMNSNPLVSKKDPADFYSPVKFILTKGLAIESLRDEIYCQLIKQSTSNPIQDLNIRVWELIHFTCSTFPPTRKLIKYFAAYLKTTIQQSDVSKSVKDSAQASYFILQRFTLNGARKQVPSVTELESIKENRPIFVRITATDGSLKGLHIDSATTCQESSNDLSQRSRMRVNSKENGFTIIESFNGIERDIAPTDKLCDVLSKVENLQATLSSKIQVNFKFVFKKKLFFDNITNNVPTTSINVENEFYYHQLFNDLFNSNYCKDQDYQISIGSLKLQFESSDYTDEIRAWLPGNGRGKYFTTDIEKNRFDDFINKYKSHKGLSPEDAKKQMVQLLEKHPLANCSLVVCEHQSESLPYPKNFVLALNVNGINIYDPATSKMLESVKYSNQSQQNLKSDDKSVSIILENKSTLQAFTGDVQKLVSLIKEYSLYLRNNA", "values": [{"measurement": "Kd", "setting": "[1]", "value": "1700 ± 500", "unit": "nM"}, {"measurement": "Kd", "setting": "F-actin", "value": "13.7 ± 2.6", "unit": "µM"}]}
